Test results from patent US20190106487A1 (Sanofi, published 2019).
Changes are numbered by the printed parent chain.

B1: P013.S.01.B.H04 (antibody, V domains shown)
VH: QSVEESGGRLVTPGTPLTLTCTVSGFSLDSYAMGWVRQAPGKGLEWIGIINSYGSIYYASWAKGRFTISKTSTTVDLKMTSLTTEDTATYFCARSAYSNNGDRLHLWGQGTLVTVSS
VL: DIVMTQTPSPVSGAVGGTVTIKCQASEDIYSNLAWYQQKPGQPPKLLIYYVSTLESGVPSRFKGSRSGTDYTLTISDLESADAATYYCQCTEGGSGSDYTFGGGTEVVVK
notes: rabbit monoclonal antibody; also called P013.A.00014.G05
B2: P013.S.02.B.C04 (antibody, V domains shown)
VH: QQLEQSGGGLVKPGGSLELCCKASGFSLSSSYWICWVRQAPGKGLEWIGCIYAGSSGSTYYANWVNGRFTLSRDIDQSTGCLQLSSLTAADTAMYYCARSIVDFSSGWGDLWGQGTLVTVSS
VL: ALVMTQTPSPVSAAVGGTVTINCQASEDIYSNLAWYQQKPGQPPKLLMYGVSTLASGVPSRFSDSGSGTEFTLTISGLQSDDAATYYCLGVYTYISDVYYTFGGGTEVVVK
notes: rabbit monoclonal antibody; also called P013.A.00085.H07
B3: P013.S.01.B.E04 (antibody, V domains shown)
VH: QSVEESGGRLVTPGTPLTLTCTVSGIDLNSNGINWVRQAPGKGLEWIGYIGAGDITYCASWAKGRFTISKTSSTTVDLKITSLTTEDTATYFCARWGPGALDLWGQGTLVTVSS
VL: AQVLTQTASSVSATVGGTVTISCQSSQSVYNNNYLSWYQQKPGQPPKLLIYKASTLASGVPLRFSGSGSGTQFTLTISGVQSDDAATYYCAGFYETTDVGFGGGTEVVVK
notes: rabbit monoclonal antibody; also called P013.A.00109.D07
B4: P013.S.01.B.G06 (antibody, V domains shown)
VH: QSLEESGGRLVTPGTPLTLTCTASGFTISSYYMSWVRQAPGKGLEWIGGIATDGNTYYANWAKGRFTVSRTSTTVDLKVTSPTAEDTATYFCARGGPAYSRGTHYAMDLWGPGTLVTVSS
VL: AYDMTQTPASVEVAVGGTVTIKCQASQSIYIYLAWYQQKPGQRPKQLIYDASKLASGVPSRFSGSGSGTEFTLTISGVESADAATYYCQQGATIWNVDNPFGGGTEVVVK
notes: rabbit monoclonal antibody; also called P013.A.00085.H05
B5: P013.S.01.B.C02 (antibody, V domains shown)
VH: QSLEESGGDLVKPGASLTLTCTASGFSFSSSHYMCWVRQAPGKGLEWIACIYAGSSGNTYYANWAKGRFTISKTSSTTVTLQMTSLTAADTATYFCARVDASSSGSWDLWGPGTLVTVSS
VL: AIEMTQTPFSVSAAVGGTVTINCQASESIYSNLAWYQQILGQPPKLLIYAASLLASGVPSRFKGSGSGTEYTLTISGVQSADAATYYCQSASYSTGPDWTFGGGTEVVVE
notes: rabbit monoclonal antibody; also called P013.A.00014.C10
B6: P013.S.01.B.E06 (antibody, V domains shown)
VH: B5 VH with S31T, H32Y, N58S, N63S, A101G
VL: AIEMTQTPSSVSAAVGGTVTINCQASQNIYSNLAWYQQKPGQRPKLLIYAASLLASGVPSRFKGNGSGTEYTLTISDLESADAATYYCQGAVYSGNTEWAFGGGTEVVVK
notes: rabbit monoclonal antibody; also called P013.A.00030.F07
B7: P013.S.01.B.B02 (antibody, V domains shown)
VH: LEQSGGGAEGGLVKPGGSLELCCKASGFSLSSSYWICWVRQAPGKGLEWIGCIYTGSSGITYYASWVNGRFTLSRDIDQSTGCLQLNSLTAADTAMYYCAKDGPSTLFNFWGQGTLVTVSS
VL: ALVMTQTPSPVSAAVGGTVTINCQASEDIYSNLAWFQQKPGQPPKLLIYRASTLASGVPSRFKGSGSGTEFTLTISGLQSDDAATYYCLGVYTYPSADNAFGGGTEVVVR
notes: rabbit monoclonal antibody; also called P013.A.00014.B03
B8: P013.S.01.B.D06 (antibody, V domains shown)
VH: QSLEESGGDLVKPGASLTLTCTASGFSFSSSYYMCWVRQAPGKGLEWIACIYAGSSGVTYYASWAKGRFTISDTSSTTVTLQMTSLTAADTATYFCASETDGNYFNLWGPGTLVTVSS
VL: B7 VL with K63S, P95S, S96T, A97D, D98I, N99H, R110K
notes: rabbit monoclonal antibody; also called P013.A.00029.D02
B9: P013.S.01.B.C05 (antibody, V domains shown)
VH: QSVEESGGRLVTPGTPLTLTCTVSGFSLSNYAMSWVRQAPGKGLEYIGIIDSGGSAYYATWARGRFTISRTSTTVDLKMTSPTTEDTATYFCARGGPAYSTNTHYTLDLWGPGTLVTVSS
VL: AFEMTQTPSSVSEPVGGTVTIKCQASQSIYNYLSWYQQKPGQPPKLLIYDASELASGVPSRFKGSGSGTEFTLTISGVQSDDAATYYCQQGATTYNIENVFGGGTEVVVK
notes: rabbit monoclonal antibody; also called P013.A.00045.E06
B10: P013.S.02.B.E03 (antibody, V domains shown)
VH: QSVEESGGRLVTPGTPLTLTCTVSGFSLSDYYMGWVRQAPGKGLEWIGTIDGGGSTYYASWAKGRFTVSKTSTTVDLTITSPTTEDTAIYFCARNYYAGLSDVFFGWWGQGTLVTVSS
VL: DVVMTQTPASVEAAVGGTVTIMCQASETIYSGLAWYQQKPGQPPKLLIYYTSSLASGVPSRFKGSGSGTEFTLTISDLESADAATYYCQTYYDSEGRSYGYNSFGGGTEVVVK
notes: rabbit monoclonal antibody; also called P013.A.00091.A10

Each binder was assayed against T1, human IL-1RAcP on 293T/17-FR cells (human, UniProt Q9NPH3 21-570) (assay: cell-based or functional assay).
T1 sequence (looked up): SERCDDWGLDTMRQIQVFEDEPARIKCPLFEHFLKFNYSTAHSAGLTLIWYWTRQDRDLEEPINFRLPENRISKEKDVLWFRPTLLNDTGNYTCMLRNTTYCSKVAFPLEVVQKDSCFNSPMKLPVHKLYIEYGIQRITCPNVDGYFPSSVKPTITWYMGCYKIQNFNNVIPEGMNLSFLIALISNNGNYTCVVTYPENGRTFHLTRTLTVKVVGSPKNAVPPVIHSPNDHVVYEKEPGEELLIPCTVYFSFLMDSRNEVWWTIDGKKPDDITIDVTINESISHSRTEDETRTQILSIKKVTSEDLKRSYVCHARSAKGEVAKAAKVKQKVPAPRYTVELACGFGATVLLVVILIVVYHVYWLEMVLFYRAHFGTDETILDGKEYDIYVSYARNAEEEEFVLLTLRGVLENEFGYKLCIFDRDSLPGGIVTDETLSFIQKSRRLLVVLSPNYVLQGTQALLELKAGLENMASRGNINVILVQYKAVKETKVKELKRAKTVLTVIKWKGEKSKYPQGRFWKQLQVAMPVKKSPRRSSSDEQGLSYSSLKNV

Point of comparison: B1, “functional reporter gene assay (% inhibition), 0.04 µg/mL mAb” value 10%. Against it:
- B2 — higher, 29%
- B3 — higher, 39%
- B4 — higher, 69%
- B5 — higher, 18%
- B6 — higher, 44%
- B7 — higher, 75%
- B8 — higher, 24%
- B9 — higher, 67%
- B10 — lower, 6%

Point of comparison: B5, “functional reporter gene assay (% inhibition), 0.2 µg/mL mAb” value 78%. Against it:
- B1 — lower, 49%
- B2 — lower, 26%
- B3 — lower, 62%
- B4 — lower, 49%
- B6 — lower, 60%
- B7 — higher, 84%
- B8 — lower, 66%
- B9 — lower, 74%
- B10 — lower, 12%

Point of comparison: B9, “functional reporter gene assay (% inhibition), 1 µg/mL mAb” value 87%. Against it:
- B1 — lower, 49%
- B2 — lower, 40%
- B3 — higher, 88%
- B4 — higher, 94%
- B5 — higher, 99%
- B6 — higher, 93%
- B7 — higher, 94%
- B8 — higher, 96%
- B10 — lower, 16%

Point of comparison: B3, “functional reporter gene assay (% inhibition), 5 µg/mL mAb” value 98%. Against it:
- B1 — lower, 54%
- B2 — lower, 91%
- B4 — lower, 96%
- B5 — the same, 98%
- B6 — lower, 91%
- B7 — the same, 98%
- B8 — lower, 97%
- B9 — lower, 95%
- B10 — lower, 25%

Point of comparison: B2, “primary supernatant functional assay (% inh.), NF-kB luciferase reporter” value 65%. Against it:
- B1 — lower, 35%
- B3 — higher, 88%
- B4 — higher, 89%
- B5 — higher, 82%
- B6 — higher, 72%
- B7 — higher, 97%
- B8 — higher, 80%
- B9 — lower, 27%
- B10 — lower, 37%

What follows are binders tested against T2, rhIL-1RAcP/Fc Chimera (human, UniProt Q9NPH3 21-359) (assay: ELISA, recombinant purified mAb).
T2 construct: also called P013_03; P013-03
T2 sequence (looked up): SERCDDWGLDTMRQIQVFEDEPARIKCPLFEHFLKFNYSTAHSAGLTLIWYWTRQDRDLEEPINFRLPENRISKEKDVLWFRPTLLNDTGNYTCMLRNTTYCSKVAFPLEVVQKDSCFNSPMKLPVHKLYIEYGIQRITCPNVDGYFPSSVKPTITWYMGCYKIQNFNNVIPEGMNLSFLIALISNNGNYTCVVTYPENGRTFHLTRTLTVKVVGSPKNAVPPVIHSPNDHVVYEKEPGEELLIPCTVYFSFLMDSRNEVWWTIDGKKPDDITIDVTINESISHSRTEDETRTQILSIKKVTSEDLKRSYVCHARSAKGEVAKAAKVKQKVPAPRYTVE

Point of comparison: B8, EC50 0.053 µg/mL. Against it:
- B1 — within 1.5-fold, 0.062 µg/mL
- B2 — 14-fold higher, 0.758 µg/mL
- B3 — within 1.5-fold, 0.072 µg/mL
- B4 — 2.2-fold higher, 0.115 µg/mL
- B5 — 2-fold higher, 0.105 µg/mL
- B6 — 8.4-fold higher, 0.447 µg/mL
- B7 — 3.3-fold higher, 0.175 µg/mL
- B9 — within 1.5-fold, 0.038 µg/mL
- B10 — 6.8-fold higher, 0.363 µg/mL

Each binder was assayed against T2, rhIL-1RAcP/Fc Chimera (assay: ELISA, primary supernatant, coated hu-IL-1RAcP-Fc).
Text: Microtiter plates were coated IL-1RACP and/or IL12Rβ1 protein (recombinant Fc chimeric conjugates of human IL-1RACP or IL12Rβ1). After a blocking process, specific antibodies from B-cell supernatants bind to the targets and are then detected by a POD-labeled anti-rabbit IgG antibody. The IL12Rβ1 binding was used as a counterscreen. IL-1RACP protein was tagged with a linker, huFc and His like the IL12Rβ1 protein. Antibodies which bind to the tag were positive in both assays, whereas antigen specific antibodies just bound to IL-1RACP and not to IL12Rβ1.
12.5 μL 0.5 μg/mL IL-1RACP protein in PBS was transferred to a microtiter plate, incubated and washed 3× with Wash Buffer. 90 μL Block Buffer was added to each well, incubated and washed. 12.5 μl Standard Antibody (rabbit mAb against IL-1RAcP, anti IL12Rbeta1 antibody: IL-12Rbeta1 antibody; GeneTex; Cat. No. GTX103917) or sample diluted in ELISA buffer was added, incubated and washed. 12.5 μl 1:5000 POD-Antibody (Anti-rabbit IgG, peroxidase-linked species-specific Fab2 fragment (from donkey) (ECL); assay dilution: 1:5000) in Elisa Buffer was added, incubated and washed. 15 μl TMB was added and 15 μl HCl was added after sufficient development. Absorbance (Optical Density O.D.) was read at 450 nm/620 nm.

Point of comparison: B5, “hu-IL1RaP ELISA (OD)” value 3.4 OD. Against it:
- B1 — higher, 3.7 OD
- B2 — lower, 2.7 OD
- B3 — lower, 3.3 OD
- B4 — higher, 3.8 OD
- B6 — the same, 3.4 OD
- B7 — higher, 3.6 OD
- B8 — higher, 3.7 OD
- B9 — lower, 2.5 OD
- B10 — lower, 3.3 OD
